Data from paper PMC10726971 (Nature chemical biology, 2023).

Biological target: the molecule itself
Assay: SEC-MALS

B1: human FUT9 soluble catalytic domain (residues 39-359) (enzyme, UniProt Q9Y231 39-359, looked up)
chain: SPMESASSVLKMKNFFSTKTDYFNETTILVWVWPFGQTFDLTSCQAMFNIQGCHLTTDRSLYNKSHAVLIHHRDISWDLTNLPQQARPPFQKWIWMNLESPTHTPQKSGIEHLFNLTLTYRRDSDIQVPYGFLTVSTNPFVFEVPSKEKLVCWVVSNWNPEHARVKYYNELSKSIEIHTYGQAFGEYVNDKNLIPTISTCKFYLSFENSIHKDYITEKLYNAFLAGSVPVVLGPSRENYENYIPADSFIHVEDYNSPSELAKYLKEVDKNNKLYLSYFNWRKDFTVNLPRFWESHACLACDHVKRHQEYKSVGNLEKWFWN
modifications: N-glycans cleaved with EndoF1; a tetrasaccharide (Manα1,3-Manβ1,4-GlcNAcβ1,4-GlcNAcβ-) is left on Asn153
stoichiometry N: 2
